B1: Azoarcus group I ribozyme (parent)
chain: GUGCCUUGCGCCGGGAAACCACGCAAGGGAUGGUGUCAAAUUCGGCGAAACCUAAGCGCCCGCCCGGGCGUAUGGCAACGCCGAGCCAAGCUUCGGCGCCUGCGCCGAUGAAGGUGUAGAGACUAGACGGCACCCACCUAAGGCAAACGCUAUGGUGAAGGCAUAGUCCAGGGAGUGGCGAAAGUCACACAAACCGG

The variants in the series derive from B1. The series is described as follows: reverse-splicing fitness (ratio to wild type); higher = more active; in vitro selection; Mg2+ level not given. An outline of the steps:
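An in vitro group I ribozyme library with randomized positions was T7-transcribed and gel-purified. In triplicate, 10 pmol RNA in EPPS pH 7.5 was reacted with 50 pmoles of a 30-nt RNA substrate for 1 h at 37 °C across several added MgCl2 levels (1–48 mM), then stopped with EDTA. Products were reverse transcribed from a substrate-complementary primer, PCR-amplified and sequenced (HiSeq 4000). Fitness is a variant's read proportion after selection over that before, normalised to wild type.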
As to C82U A111U A120U C150G U176A, the reverse-splicing fitness was determined as 0.00352. To A111U A120G A145G C150U C169G U176C belongs 0.0424. To C82U A120G C150G U176C belongs 0.00821; to C82A A111C A120G A145G C150A C169A U176A, 0.0181.

As to C82G A111C A120U A145U C150U C169A U176A, the reverse-splicing fitness was 0.00282. Then A111C A120C A145U C150G C169U, with 0.0234; and C82G A111G A120U C150U C169A, with 0.00504; and C82U A111G A120C A145C C150A C169A, with 0.00689. As to C82U A111C A120G C150U C169A U176A, the reverse-splicing fitness was 0.0142. To C82G A111U A145C C169A belongs 0.00732; to A111U A120U A145C C150G U176G, 0.00337; to C82G A111C A145U C169A, 0.00813. In the case of A111C A120G A145G U176A, the reverse-splicing fitness stood at 0.0379. As to C82U A120C A145G C150U C169U U176A, the reverse-splicing fitness was 0.0165. To C82A A120G A145U C150A C169U U176A belongs 0.0207; to A120G A145G C150A C169A U176A, 0.0345. To C82U A120G C150U C169A U176C belongs 0.014; to C82U A145U C169G U176C, 0.00956; to A145C C150A C169G U176A, 0.0271. As to C82G A120G A145U C150G C169G, the reverse-splicing fitness amounted to 0.0107.

On to A111G A145C C150A C169G, for which the reverse-splicing fitness was determined as 0.0111. Consider A111U A145G C150U C169A U176A, for which the reverse-splicing fitness stood at 0.0155.

Take A111C A120U A145C C150U C169A U176G: the reverse-splicing fitness was 0.00188.

As to C82G A120U A145C C150U C169U U176G, the reverse-splicing fitness came out at 0.00165. To C82U A111G A120C A145U C150U C169A U176A belongs 0.0106; to C82G A120G A145C C150U C169U, 0.0103; to A111G A120G A145G C150U C169U U176A, 0.0625. For C82A A111G A120C A145C C150A C169A, the reverse-splicing fitness was determined as 0.00989.

On to A111G A145U C150U C169G U176C, for which the reverse-splicing fitness was 0.0325.

With C82U A111G A120C A145G C150G C169U U176A, the reverse-splicing fitness was determined as 0.00704. Then C82G A145G C150U C169U U176A, with 0.0145.

For C82U A111C A120U A145G C150G C169U, the reverse-splicing fitness is 0.0067.

Turning to C82U A120U A145U C150U C169G U176G, the reverse-splicing fitness is 0.00157. Regarding C82U A111C A120U A145G U176C, the reverse-splicing fitness turned out to be 0.0113. To C82G A145C C150G U176C belongs 0.0389. To A120C C150G C169U belongs 0.0809; to A120C A145U C150U C169A U176A, 0.0137. Then C82G A111C C150G C169A U176A, with 0.00955; and C82G A111C A145G C150A C169G U176C, with 0.0256; and C82G A120G A145U C150G U176A, with 0.00666. On to C82G A111G A120C A145U C169U U176C, for which the reverse-splicing fitness is 0.0124. Then A120G A145G C150A C169U U176G, with 0.00665; and C82G A111C A120G A145C C169G U176C, with 0.0171; and A111U A120U A145U C150U C169A U176G, with 0.00264. To C82U A111G A120C A145U C150A C169G U176A belongs 0.0153. Then A111C A120U C150G C169A U176G, with 0.00363; and C82A A111U A145G, with 0.313; and A111G A145C C150U U176C, with 0.491. For C82U A120C C150A C169A U176C, the reverse-splicing fitness was 0.0132. To C82A A111C A120U C169G U176C belongs 0.00315; to C82A A111U A120C A145C C150G C169G, 0.00743. To C82A A111U A120G A145G C169U U176A belongs 0.0211; to C82U A120C C150G C169G U176A, 0.00705; to C82U A120G A145U C150A C169U U176C, 0.014. Then A111C A145U C169A, with 0.0348; and A111C A120C C150U U176G, with 0.0275; and C82A A111G A120G A145C C150U, with 0.0102. Regarding C82A A111U A145C C150A C169U U176C, the reverse-splicing fitness came to 0.0116. Then C82G A111U A145U C150G C169G, with 0.00766; and C82U A111U A120U C150A C169G U176A, with 0.00758; and C82U A120U A145G C169U U176A, with 0.00293.

Consider C82G A111C A120U A145U C150U, for which the reverse-splicing fitness is 0.0307. Turning to C82A A120G A145U C150A U176A, the reverse-splicing fitness was 0.0108. To C82G A111G A120G A145U C169G U176C belongs 0.0187. Then C82A A111G A120G A145U C150G C169U U176G, with 0.00483; and C82G A111G A120C A145C C150A C169U U176C, with 0.0126. To C82A A111U A120C A145U U176C belongs 0.0276. In the case of A120U A145C C169G U176A, the reverse-splicing fitness worked out at 0.0356. To C82U A111C A120C A145G C150U C169U belongs 0.012.

For the variant C82A A111G A120G A145C C150U C169A U176G, the reverse-splicing fitness came to 0.00561. To C82U A111G A120C A145G C169U U176A belongs 0.0141; to C82U A111G A120U A145U C150A C169A U176A, 0.00277. Then C82U A111G A120C A145U C150A, with 0.0105; and C82G A145G C169A U176G, with 0.00413. Then A111G A120G A145C C150G C169U U176C, with 0.0162; and C82A A120G C169A, with 0.0152. C82G A120G C150G U176G: the reverse-splicing fitness is 0.00387. To C82A A111G A145U C150A belongs 0.0313; to C82G A111U A120G A145U C150A, 0.00819; to A111U A120G A145G C169U, 0.158. In the case of A111U A120U A145G C150G U176C, the reverse-splicing fitness came to 0.0225. To C82U A111G A145C C150A C169G U176G belongs 0.0054; to A120U A145G C150A U176A, 0.222.

(Values after the RNAGym collection of RNA variant scans (doi:10.1093/molbev/msab373).)
